Paper PMC9905591, “A single point mutation expands the applicability of ostreolysin A6 in biomedicine” (Scientific Reports, 2023)

Biological target: T1, OlyA6 mutant E69A (Pleurotus ostreatus, UniProt P83467 1-138, E69A)
T1 sequence: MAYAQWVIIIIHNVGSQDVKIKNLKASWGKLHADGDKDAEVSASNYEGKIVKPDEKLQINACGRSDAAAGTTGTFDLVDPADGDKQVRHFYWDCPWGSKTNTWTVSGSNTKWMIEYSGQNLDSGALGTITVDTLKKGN
Experiment: cell-based or functional assay

B1: Δ48PlyB (pleurotolysin B) (domain or fragment, Pleurotus ostreatus, UniProt Q5W9E8 49-523, looked up)
chain: SQAGDTLNDVIQDPTRRNKLINDNNLLKGIIMGRDGPVPSSRELIVRPDTLRAIINNRATIETTTMEAEFTETLMESNYNSASVKVSAPFITANSEYSESSSFKNTETEKSMYTSSRYLFPQGRIDFTTPDSGFDDVIKLSPQFTSGVQAALAKATGTEKREALQNLFQEYGHVFRTKVHIGGVLSAHTMETFSRSENETEVKQDVKAGLEGAVKGWGGGATAGHGNTQGTITTSQNRKLNVKYIVNGGDYTKIQNTEEWVASTNQSEHWRVIEVTEVTAVADLLPQPIRGQVKDLLKPLLGKWVDVEKVPGLESLPVSVYRPKGAIPAGWFWLGDTADASKALLVKPTLPARSGRNPALTSLHQGSGMTEQPFVDLPQYQYLSTYFGSFAHDTPPGSTLRGLRPDHVLPGRYEMHGDTISTAVYVTRPVDVPFPEDECFDLKSLVRVKLPGSGNPPKPRSALKKSMVLFDSGEK
hazard ratio against buffer, Kaplan-Meier survival of Colorado potato beetle larvae on E69A/PlyB-treated leaf discs: 2.76
